1 molecule from US20090068214A1 can be followed below.

The experiment has as its target HLA-A2 on T2 cells, P30376.

B1: HPV 16 E2 69-77 peptide (…) (peptide)
peptide: ALQAIELQL
modifications: not checked
B1 registered a peptide concentration at fluorescence index (FI) 0.5 of 50 µM.
